Reference: paper PMC3130009, “Trichinella spiralis Paramyosin Binds to C8 and C9 and Protects the Tissue-Dwelling Nematode from Being Attacked by Host Complement” (PLoS Neglected Tropical Diseases, 2011)

How the values were obtained:
Assay in all cases: cell-based or functional assay
[1] = target: human complement component C8, beta chain (human, UniProt P07358 55-591)
[2] = target: human complement component C8, alpha chain (human, UniProt P07357 31-584)
[3] = target: human complement component C9 (human, UniProt P02748 22-559)

Measured: reduction of alternative-pathway complement-mediated lysis of rabbit erythrocytes by 6% normal guinea pig serum, 0 to 40 µg rTs-Pmy (55.7% at 10 µg)

human complement component C9, sequence (P02748 22-559): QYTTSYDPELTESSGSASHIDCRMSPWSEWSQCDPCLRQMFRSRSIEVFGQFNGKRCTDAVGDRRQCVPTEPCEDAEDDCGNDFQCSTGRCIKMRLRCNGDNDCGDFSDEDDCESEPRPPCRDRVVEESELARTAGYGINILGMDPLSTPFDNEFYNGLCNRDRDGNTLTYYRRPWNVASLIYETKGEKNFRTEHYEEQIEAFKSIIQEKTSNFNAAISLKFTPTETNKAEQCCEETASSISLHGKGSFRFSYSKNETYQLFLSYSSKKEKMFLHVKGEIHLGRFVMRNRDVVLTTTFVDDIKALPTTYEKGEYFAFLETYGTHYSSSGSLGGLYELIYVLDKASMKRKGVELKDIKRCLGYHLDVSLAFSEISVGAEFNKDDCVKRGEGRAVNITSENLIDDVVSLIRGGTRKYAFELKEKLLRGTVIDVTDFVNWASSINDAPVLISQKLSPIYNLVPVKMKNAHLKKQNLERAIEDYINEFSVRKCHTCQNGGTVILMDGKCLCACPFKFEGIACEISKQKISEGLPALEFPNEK
human complement component C8, beta chain, sequence (P07358 55-591): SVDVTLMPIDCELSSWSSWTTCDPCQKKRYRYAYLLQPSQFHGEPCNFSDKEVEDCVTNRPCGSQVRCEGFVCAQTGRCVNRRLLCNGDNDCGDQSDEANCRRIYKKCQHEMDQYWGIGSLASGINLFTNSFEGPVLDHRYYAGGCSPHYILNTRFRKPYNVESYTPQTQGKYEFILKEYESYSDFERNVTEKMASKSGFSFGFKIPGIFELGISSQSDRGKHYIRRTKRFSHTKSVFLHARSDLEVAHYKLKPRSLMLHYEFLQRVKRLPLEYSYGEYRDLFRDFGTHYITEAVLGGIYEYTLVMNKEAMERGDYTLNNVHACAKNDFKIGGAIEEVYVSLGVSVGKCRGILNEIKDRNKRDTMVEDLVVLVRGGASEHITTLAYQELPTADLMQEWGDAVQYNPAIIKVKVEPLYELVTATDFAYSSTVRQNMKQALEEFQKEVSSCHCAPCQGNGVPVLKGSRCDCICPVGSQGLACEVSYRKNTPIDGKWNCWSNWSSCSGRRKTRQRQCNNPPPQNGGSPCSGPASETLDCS
human complement component C8, alpha chain, sequence (P07357 31-584): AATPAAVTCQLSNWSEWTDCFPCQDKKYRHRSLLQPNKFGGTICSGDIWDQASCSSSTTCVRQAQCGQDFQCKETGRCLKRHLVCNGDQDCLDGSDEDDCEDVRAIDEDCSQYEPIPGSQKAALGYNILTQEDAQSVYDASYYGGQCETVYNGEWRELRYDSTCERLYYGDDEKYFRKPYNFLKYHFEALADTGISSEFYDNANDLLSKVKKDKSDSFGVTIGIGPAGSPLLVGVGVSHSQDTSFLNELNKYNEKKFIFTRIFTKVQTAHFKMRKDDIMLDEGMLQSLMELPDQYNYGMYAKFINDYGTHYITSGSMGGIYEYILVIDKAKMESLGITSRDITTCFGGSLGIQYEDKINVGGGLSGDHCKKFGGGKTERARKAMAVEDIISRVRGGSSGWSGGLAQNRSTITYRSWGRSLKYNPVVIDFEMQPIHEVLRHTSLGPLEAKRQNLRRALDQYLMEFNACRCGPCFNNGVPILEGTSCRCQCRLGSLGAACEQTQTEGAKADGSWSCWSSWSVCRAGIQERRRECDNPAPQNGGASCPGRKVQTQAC

B1: recombinant Trichinella spiralis paramyosin (natural protein)
chain: MSLYRSPSASVMRSASMLSRSGGFDAYGFGGYGAPSLNVADLGSLTRLEDKIRLLQDDLETERELRNRIERERADLSCQLISLTDRLEEAEGTTDAQIDANRKRESELQKLRKILEDSQLESEDSLNQLRKKHQESLLDYQQQIEQLQKKNSKIDRERQRLQHEVIELTAGIDQMQKDKHAAEKAAEKHEAHARELQNRVDDLAKNLNDLASQRQRLQQENNDLMKELHDVKVQMENIQHVKTQLAQQLEEARRRLEDAERERSQMQTQLHQMQLELDSIQGALEEESSARAEAEHKLSLANTEISQWKSKFDAEVSLHQEEVDDLRKKMIQKQAEYEEQIEIMLQKISQLEKAKSRLQSEVEVLIVDLEKAQSTIAILERQKEQLERMVAEMKTRLDEVTQELEATQRELRATQAELQKMKHLYEKAVEQKEALARENKKLQDDLHEAKEALADANRKLHELDLENARLAGEIRELQIALKEAEAARRDAESRAQRAVAELQALRVEMERRLQEKEEEMEALRKNMQFEIDRLAAALADAEARMKAEISRLKKKYQAEIAELEMTIDNLNRANLEAQKTIKKQADQLRALQSSFEDCQRQLQQTLDQYAIAQRKLSALSAELEDCKSALDTAIRVRKQAEADLEEAQGKIADLVSLNNNLTAIKGKLETDLSTCQADLDETTKELRAADDRANRAQQDAVRAMEQLHEEQEHSMKIDAMRKALEEHVKQLQVQIQEAEAAALLGGKRVIAKLETRIRDLEMALDEESRRHKETQACLRKKDRRVKEMQMQVDEEHKNFVMAQDTAERLAEKLNIYKRQLTEAESLTMQNLQRVRRYQHELEDAEGRAEQAESSLHLIRAKHRSSVSMGKSLSSKVYVMEEGHEY
91.9 % reduction of lysis: [1] | [2] | [3]
